The results in this text go back to patent US20110027273A1.

The target of this test is mouse CD22 (mouse) (UniProt P35329). Put plainly: cell-based or functional assay.
Chain of UniProt P35329 (P35329 22-868): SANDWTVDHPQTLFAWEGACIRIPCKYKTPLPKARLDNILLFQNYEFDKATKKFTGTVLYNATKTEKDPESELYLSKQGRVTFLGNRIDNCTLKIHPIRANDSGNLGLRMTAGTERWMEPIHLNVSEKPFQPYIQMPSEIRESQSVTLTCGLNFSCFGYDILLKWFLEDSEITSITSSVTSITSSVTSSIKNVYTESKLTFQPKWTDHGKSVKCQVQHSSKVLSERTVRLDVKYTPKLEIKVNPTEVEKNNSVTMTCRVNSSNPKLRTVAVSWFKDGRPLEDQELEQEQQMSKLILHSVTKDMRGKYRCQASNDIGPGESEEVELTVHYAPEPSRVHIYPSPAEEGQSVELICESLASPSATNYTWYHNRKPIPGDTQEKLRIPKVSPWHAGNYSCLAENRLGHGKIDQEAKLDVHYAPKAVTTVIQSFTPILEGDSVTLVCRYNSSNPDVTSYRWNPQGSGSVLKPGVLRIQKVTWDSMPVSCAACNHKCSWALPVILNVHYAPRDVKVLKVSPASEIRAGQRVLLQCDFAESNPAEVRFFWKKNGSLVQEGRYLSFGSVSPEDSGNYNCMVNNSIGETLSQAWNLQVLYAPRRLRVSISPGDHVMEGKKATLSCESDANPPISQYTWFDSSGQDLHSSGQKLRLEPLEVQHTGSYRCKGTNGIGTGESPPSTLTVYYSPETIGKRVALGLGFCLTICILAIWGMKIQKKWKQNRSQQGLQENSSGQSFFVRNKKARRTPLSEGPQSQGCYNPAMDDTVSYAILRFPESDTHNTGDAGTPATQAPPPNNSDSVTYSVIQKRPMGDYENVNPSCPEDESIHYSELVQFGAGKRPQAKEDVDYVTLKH

The substance “CD22/cal (Cy34.1 mAb conjugated to N-acetyl gamma calicheamicin dimethyl acid) (antibody)” yielded an IC50, in vitro cytotoxicity (proliferation of LPS-stimulated primary B cells, 48 hours) of 0.08 µg/mL; an IC50, proliferation of LPS-stimulated primary mouse B cells (3H thymidine, 48 hr) of 0.03 µg/mL; a selectivity against the control immunoconjugate J110/cal (IC50 3 µg/ml), B cell proliferation of 100 fold.
